Reference: patent CN115677859A (HEFEI HANKEMAB BIOTECHNOLOGY CO LTD; ANHUI ANKE …, dated 2023)
One block for each binder: values may come before it.

Columns and labels:
[1] = target: T1, 人4-1BB全长, 表达于细胞 (CHO-K1/h4-1BB; HEK-293/NFκB-Luci/4-1BB) (human, UniProt Q07011 24-255); experiment: flow cytometry on CHO-K1/h4-1BB cells
T1 construct: also called 细胞表面人4-1BB抗原

[2] = target: T2, 人4-1BB胞外段 (human 4-1BB extracellular domain, HEK293-expressed, Example 4) (human, UniProt Q07011 24-186); experiment: ELISA, human 4-1BB ECD coated, anti-human IgG HRP
T2 construct: also called 人4-1BB抗原; CD137

[3] = target: T3, 人PD-L1全长, 表达于CHO-K1细胞 (CHO-K1/hPD-L1; CHO-K1/PDL1/TCR) (human, UniProt Q9NZQ7 19-290); experiment: flow cytometry on CHO-K1/hPD-L1 cells, anti-human FITC
T3 construct: Full-length human PD-L1 transfected into CHO-K1 cells; also called 细胞表面人PD-L1抗原
T3 sequence (Q9NZQ7 19-290 limits assumed): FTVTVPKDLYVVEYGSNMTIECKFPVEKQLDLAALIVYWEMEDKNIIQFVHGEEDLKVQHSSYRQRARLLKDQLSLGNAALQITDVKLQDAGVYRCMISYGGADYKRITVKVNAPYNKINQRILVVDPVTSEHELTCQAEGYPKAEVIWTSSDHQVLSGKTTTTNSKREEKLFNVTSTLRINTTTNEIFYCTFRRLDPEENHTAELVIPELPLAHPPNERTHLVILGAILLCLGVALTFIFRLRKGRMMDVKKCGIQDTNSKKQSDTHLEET

[4] = target: T3, 人PD-L1全长, 表达于CHO-K1细胞 (CHO-K1/hPD-L1; …); experiment: flow cytometry on CHO-K1/hPD-L1 cells, 4-parameter logistic fit
[5] = target: T4, 人4-1BB胞外段, 带鼠Fc标签 (human 4-1BB extracellular domain with mouse Fc tag, Example 5) (human, UniProt Q07011 24-186); experiment: bridging ELISA: PD-L1-His coated, bispecific, then 4-1BB-mouse Fc, anti-mouse HRP
T4 construct: also called 抗原人4-1BB; not shown: mouse Fc tag

[6] = target: T5, 猴4-1BB胞外段 (monkey 4-1BB extracellular domain) (monkey (猴), UniProt Q07011 24-186 (human entry)); experiment: ELISA, monkey 4-1BB ECD coated, anti-human HRP
T5 construct: also called 猴4-1BB抗原
T5 chain: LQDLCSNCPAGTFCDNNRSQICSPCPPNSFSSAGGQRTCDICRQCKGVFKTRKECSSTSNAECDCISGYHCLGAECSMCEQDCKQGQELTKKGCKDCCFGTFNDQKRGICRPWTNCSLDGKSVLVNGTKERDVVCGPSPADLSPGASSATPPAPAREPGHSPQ

[7] = target: T6, 猴PD-L1胞外段 (monkey PD-L1 extracellular domain) (monkey (猴), UniProt Q9NZQ7 19-238 (human entry)); experiment: ELISA, monkey PD-L1 ECD coated, anti-human HRP
T6 construct: also called 猴PD-L1抗原
T6 sequence (Q9NZQ7 other isoform, or with tags, fused parts or gaps): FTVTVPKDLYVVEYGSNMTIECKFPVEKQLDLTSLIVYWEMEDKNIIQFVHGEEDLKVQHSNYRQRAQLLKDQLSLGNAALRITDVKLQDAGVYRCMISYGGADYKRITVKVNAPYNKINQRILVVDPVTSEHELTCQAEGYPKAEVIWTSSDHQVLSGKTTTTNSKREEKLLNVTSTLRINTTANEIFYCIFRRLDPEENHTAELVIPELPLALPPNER

T1 sequence (Q07011 24-255 limits assumed): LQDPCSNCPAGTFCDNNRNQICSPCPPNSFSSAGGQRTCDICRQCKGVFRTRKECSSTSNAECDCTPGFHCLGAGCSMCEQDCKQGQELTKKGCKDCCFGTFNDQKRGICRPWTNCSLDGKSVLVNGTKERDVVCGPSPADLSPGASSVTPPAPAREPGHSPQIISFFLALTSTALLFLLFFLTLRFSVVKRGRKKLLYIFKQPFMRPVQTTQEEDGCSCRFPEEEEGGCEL

binding result [1]: binds
binding result [2]: binds
FACS fluorescence signal at 0.308 nM (name of read-out not given) [3]: 617
FACS fluorescence signal at 0.617 nM (name of read-out not given) [3]: 889
FACS fluorescence signal at 1.851 nM (name of read-out not given) [3]: 1450
FACS fluorescence signal at 5.555 nM (name of read-out not given) [3]: 4430
FACS fluorescence signal at 16.666 nM (name of read-out not given) [3]: 8220
FACS fluorescence signal at 50 nM (name of read-out not given) [3]: 8490
EC50 [4]: 5.82 nM
binding result [5]: binds
B1: 抗人PD-L1/4-1BB双特异性抗体 结构B (anti-4-1BB scFv-(G4S)2-IgG4 Fc-(G4S)3-anti-PD-L1 Fab) (bispecific antibody)
heavy: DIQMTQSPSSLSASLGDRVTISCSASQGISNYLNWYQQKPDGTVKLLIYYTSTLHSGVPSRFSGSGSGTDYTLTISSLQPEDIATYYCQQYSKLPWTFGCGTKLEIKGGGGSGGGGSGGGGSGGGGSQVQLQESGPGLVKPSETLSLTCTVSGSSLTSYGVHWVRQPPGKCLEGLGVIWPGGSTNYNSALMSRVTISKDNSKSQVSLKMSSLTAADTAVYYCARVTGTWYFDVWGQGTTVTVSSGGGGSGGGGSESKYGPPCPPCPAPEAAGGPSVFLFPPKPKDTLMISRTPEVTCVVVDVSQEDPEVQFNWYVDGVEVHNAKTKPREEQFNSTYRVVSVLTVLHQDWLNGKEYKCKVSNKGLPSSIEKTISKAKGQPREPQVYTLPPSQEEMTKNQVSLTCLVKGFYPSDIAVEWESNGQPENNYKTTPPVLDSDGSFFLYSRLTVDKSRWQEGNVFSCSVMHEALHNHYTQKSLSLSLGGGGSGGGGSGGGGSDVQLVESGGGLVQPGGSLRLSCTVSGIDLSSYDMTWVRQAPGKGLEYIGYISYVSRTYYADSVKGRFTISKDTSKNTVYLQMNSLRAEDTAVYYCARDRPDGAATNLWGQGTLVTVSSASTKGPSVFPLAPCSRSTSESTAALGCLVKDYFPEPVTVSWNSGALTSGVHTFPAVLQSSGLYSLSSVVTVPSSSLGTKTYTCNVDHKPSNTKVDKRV
light: DIQMTQSPSTLSASVGDRVTITCQSSQNVYSNNRLSWYQQKPGKAPKLLIYWTSFLASGVPSRFSGSGSGTEFTLTISSLQPDDFATYYCAGGYSGNLYTFGQGTKLEIKRTVAAPSVFIFPPSDEQLKSGTASVVCLLNNFYPREAKVQWKVDNALQSGNSQESVTEQDSKDSTYSLSSTLTLSKADYEKHKVYACEVTHQGLSSPVTKSFNRGEC
notes: Two heavy and two light chains; human IgG4 Fc; also called B结构

binding result [1]: binds
binding result [6]: binds
binding result [7]: binds
binding result [2]: binds
FACS fluorescence signal at 0.308 nM (name of read-out not given) [3]: 516
FACS fluorescence signal at 0.617 nM (name of read-out not given) [3]: 654
FACS fluorescence signal at 1.851 nM (name of read-out not given) [3]: 1190
FACS fluorescence signal at 5.555 nM (name of read-out not given) [3]: 2950
FACS fluorescence signal at 16.666 nM (name of read-out not given) [3]: 8400
FACS fluorescence signal at 50 nM (name of read-out not given) [3]: 8920
EC50 [4]: 7.6 nM
binding result [5]: binds
B2: 抗人PD-L1/4-1BB双特异性抗体 D6 (结构D, D2的突变体, linker (G4S)3) (bispecific antibody, human IgG4 S228P, kappa, F234A L235A)
heavy: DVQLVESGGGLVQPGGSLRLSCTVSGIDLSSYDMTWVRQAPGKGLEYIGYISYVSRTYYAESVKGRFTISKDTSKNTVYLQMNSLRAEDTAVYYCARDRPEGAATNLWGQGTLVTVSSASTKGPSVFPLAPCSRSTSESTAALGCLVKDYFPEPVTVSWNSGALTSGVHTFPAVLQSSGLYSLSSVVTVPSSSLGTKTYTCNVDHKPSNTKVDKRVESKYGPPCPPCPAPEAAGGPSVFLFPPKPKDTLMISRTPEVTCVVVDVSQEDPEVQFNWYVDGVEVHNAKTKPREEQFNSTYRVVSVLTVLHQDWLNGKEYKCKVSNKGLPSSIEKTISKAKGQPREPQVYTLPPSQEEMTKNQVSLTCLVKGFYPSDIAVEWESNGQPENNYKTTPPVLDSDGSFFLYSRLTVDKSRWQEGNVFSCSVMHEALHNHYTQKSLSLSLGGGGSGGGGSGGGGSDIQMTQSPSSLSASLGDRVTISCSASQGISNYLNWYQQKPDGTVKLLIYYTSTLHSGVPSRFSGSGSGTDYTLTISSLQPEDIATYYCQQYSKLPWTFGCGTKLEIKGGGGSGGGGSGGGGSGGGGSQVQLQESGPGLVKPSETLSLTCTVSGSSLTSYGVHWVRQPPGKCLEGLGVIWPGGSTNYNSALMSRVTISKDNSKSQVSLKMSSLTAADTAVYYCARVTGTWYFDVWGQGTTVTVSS
light: B1 light
notes: Anti-PD-L1 IgG4 with an anti-4-1BB scFv at the C-terminus of each heavy chain

FACS fluorescence signal at 0.308 nM (name of read-out not given) [3]: 543
FACS fluorescence signal at 0.617 nM (name of read-out not given) [3]: 708
FACS fluorescence signal at 1.851 nM (name of read-out not given) [3]: 1390
FACS fluorescence signal at 5.555 nM (name of read-out not given) [3]: 3820
FACS fluorescence signal at 16.666 nM (name of read-out not given) [3]: 8710
FACS fluorescence signal at 50 nM (name of read-out not given) [3]: 8870
EC50 [4]: 6.59 nM
B3: 抗人PD-L1/4-1BB双特异性抗体 D3 (结构D, D1的突变体, linker A(EAAAK)4ALE) (bispecific antibody, human IgG4 S228P, kappa, F234A L235A)
heavy: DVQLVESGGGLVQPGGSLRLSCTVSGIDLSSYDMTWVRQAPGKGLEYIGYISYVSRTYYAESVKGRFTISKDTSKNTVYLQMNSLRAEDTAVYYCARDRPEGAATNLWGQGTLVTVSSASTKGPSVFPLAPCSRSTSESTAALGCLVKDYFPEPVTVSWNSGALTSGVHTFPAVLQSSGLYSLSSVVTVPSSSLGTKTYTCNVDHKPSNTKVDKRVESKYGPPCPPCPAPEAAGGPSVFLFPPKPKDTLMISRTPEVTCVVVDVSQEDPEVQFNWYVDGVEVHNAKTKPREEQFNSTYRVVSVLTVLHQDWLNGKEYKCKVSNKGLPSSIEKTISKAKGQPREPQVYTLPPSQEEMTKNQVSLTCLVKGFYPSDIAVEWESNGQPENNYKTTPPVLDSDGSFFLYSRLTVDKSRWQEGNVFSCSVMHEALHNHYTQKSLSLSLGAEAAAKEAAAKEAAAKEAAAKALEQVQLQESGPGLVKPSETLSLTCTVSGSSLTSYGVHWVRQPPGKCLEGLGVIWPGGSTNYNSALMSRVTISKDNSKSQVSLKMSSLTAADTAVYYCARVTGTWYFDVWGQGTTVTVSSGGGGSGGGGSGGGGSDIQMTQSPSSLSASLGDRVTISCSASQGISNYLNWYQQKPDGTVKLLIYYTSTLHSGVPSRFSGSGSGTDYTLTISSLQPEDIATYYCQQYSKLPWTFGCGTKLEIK
light: B1 light
notes: as for B2
